Source: patent US20210221880A1 (CAS LAMVAC GUANGZHOU BIOMEDICAL TECHNOLOGY, published 2021)

Legend:
[1] = molecular target: T1, ID1 polypeptide with Strep-tag (Plasmodium falciparum); assay: antigen-specific ELISA, OD450
T1 construct: Expressed in E. coli, predicted 17 kDa; also called ID1 antigen peptide
T1 chain: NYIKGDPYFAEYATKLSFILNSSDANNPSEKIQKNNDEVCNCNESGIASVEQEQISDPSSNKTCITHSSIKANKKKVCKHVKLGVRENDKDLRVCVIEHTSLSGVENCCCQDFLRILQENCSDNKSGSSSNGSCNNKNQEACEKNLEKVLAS

[2] = molecular target: T2, DBL2X polypeptide with Strep-tag (Plasmodium falciparum); assay: antigen-specific ELISA, OD450
T2 construct: Expressed in E. coli, predicted 40 kDa; also called DBL2X antigen peptide
T2 chain: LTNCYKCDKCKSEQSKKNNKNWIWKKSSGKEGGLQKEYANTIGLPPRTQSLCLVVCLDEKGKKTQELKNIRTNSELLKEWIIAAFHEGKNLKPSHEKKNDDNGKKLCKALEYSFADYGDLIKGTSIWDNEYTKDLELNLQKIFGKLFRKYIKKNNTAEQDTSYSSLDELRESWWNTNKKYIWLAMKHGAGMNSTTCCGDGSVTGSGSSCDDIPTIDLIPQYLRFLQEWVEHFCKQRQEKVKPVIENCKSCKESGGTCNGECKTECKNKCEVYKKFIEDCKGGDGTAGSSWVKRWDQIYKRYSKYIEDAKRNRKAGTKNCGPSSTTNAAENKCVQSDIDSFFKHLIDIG

[3] = molecular target: T3, rVAR2 recombinant protein with a Strep-tag (prokaryotically expressed and purified) (Plasmodium falciparum); assay: Western blot, 5H4 as primary antibody
T3 construct: Expressed in E. coli, about 74 kDa; also called prokaryotically expressed and purified rVAR2 protein; strep-tagged rVAR2 recombinant protein
T3 chain: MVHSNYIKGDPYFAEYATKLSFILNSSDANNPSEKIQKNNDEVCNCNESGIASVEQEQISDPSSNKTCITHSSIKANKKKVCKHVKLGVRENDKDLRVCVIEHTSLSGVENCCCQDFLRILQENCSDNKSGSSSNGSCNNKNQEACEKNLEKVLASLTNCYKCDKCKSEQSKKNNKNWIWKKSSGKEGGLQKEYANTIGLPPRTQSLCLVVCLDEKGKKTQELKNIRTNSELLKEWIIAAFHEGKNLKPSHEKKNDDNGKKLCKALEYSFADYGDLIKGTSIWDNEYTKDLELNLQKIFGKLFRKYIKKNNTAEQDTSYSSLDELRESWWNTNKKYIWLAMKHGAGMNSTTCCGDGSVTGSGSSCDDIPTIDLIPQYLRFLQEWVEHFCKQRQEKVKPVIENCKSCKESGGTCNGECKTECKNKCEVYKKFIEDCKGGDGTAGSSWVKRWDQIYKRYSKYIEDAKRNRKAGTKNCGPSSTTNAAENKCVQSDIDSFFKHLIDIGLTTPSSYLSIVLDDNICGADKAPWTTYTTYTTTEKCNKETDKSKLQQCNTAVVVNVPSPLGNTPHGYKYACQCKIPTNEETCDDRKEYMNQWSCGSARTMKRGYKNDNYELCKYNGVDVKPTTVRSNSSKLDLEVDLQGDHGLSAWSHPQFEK

[4] = molecular target: T4, rVAR2 recombinant protein with the 3xFLAG-tag (eukaryotically expressed and purified) (Plasmodium falciparum, Possible post-translational modification (runs at about 115 kDa against 76 kDa predicted); not carried by the letters.); assay: Western blot, 5H4 as primary antibody
T4 construct: Expressed in HEK293 or HEK293T cells; Predicted about 76 kDa, runs at about 115 kDa (possible post-translational modification); also called eukaryotically expressed and purified rVAR2 protein
T4 chain: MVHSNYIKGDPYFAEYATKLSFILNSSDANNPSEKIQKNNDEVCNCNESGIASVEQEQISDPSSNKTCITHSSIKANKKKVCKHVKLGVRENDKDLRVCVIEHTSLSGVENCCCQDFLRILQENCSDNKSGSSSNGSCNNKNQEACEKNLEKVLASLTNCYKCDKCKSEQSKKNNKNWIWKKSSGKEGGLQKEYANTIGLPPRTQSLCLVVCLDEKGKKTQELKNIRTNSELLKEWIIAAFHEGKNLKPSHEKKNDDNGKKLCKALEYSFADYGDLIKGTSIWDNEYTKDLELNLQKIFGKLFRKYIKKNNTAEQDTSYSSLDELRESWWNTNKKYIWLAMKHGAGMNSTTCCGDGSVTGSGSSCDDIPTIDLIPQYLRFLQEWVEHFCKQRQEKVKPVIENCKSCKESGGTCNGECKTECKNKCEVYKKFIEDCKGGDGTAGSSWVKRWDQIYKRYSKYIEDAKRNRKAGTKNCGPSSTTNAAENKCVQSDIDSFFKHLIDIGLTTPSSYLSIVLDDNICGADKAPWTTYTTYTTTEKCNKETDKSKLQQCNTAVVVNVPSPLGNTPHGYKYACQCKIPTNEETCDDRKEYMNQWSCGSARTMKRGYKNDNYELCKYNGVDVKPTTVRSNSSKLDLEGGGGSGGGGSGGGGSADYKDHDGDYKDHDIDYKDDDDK

[5] = molecular target: T5, ID2a polypeptide with Strep-tag (Plasmodium falciparum); assay: antigen-specific ELISA, antigen coated at 1 µg/ml
T5 construct: Expressed in E. coli, predicted about 15 kDa; also called ID2a antigen peptide
T5 chain: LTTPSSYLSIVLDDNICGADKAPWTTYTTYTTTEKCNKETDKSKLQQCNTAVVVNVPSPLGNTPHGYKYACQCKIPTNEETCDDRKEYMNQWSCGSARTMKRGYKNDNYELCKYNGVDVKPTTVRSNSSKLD

B1: anti-rVAR2 monoclonal antibody 5H4 (antibody, V domains shown)
VH: EVKLVESGGGLVKPGGSLKLSCAASGFTFSNYAMSWVRQSPERRLEWVAEISITGRYTYYPDTVTGRFTISRDNAKNTLYLEMSSLRSEDTAMYYCTREGYDYAPSWFAYWGQGTLVTVSA
VL: DVVMTQTPLSLPVSLGDQASISCRSGQTLVHRNGITYLEWYLQKPGQSPKLLIYKVSNRFSGVPDRFSGSGSGTDFTLKISRVEAEDLGIYYCFQGSHVPRTFGGGTKLEIK
notes: Murine IgG from a mouse B cell hybridoma, purified from hybridoma supernatant; isotype and constant regions are not; also called murine monoclonal antibody 5H4
B1: no binding (tested: antigen coated at 1 µg/ml) [1]; no binding (tested: antigen coated at 1 µg/ml) [2]; binds [3]. B1: binds [4]; binds [5].
